Experimental data taken from patent US20040072268A1 (published 2004).

B1: GST-BRCA1 fragment F5 (BRCA1 residues 1005-1313) (other)
chain: EHSMSPEREMGNENIPSTVSTISRNNIRENVFKEASSSNINEVGSSTNEVGSSINEIGSSDENIQAELGRNRGPKLNAMLRLGVLQPEVYKQSLPGSNCKHPEIKKQEYEEVVQTVNTDFSPYLISDNLEQPMGSSHASQVCSETPDDLLDDGEIKEDTSFAENDIKESSAVFSKSVQKGELSRSPSPFTHTHLAQGYRRGAKKLESSEENLSSEDEELPCFQHLLFGKVNNIPSQSTRHSTVATECLSKNTEENLLSLKNSLNDCSNQVILAKASQEHHLSEETKCSASLFSSQCSELEDLTANTNTQ
notes: Produced in bacteria; also called fragment 5; not shown: glutathione S-transferase (GST) fusion tag
B2: GST-BRCA1 fragment F4 (BRCA1 residues 758-1064) (other)
chain: LQTERSVESSSISLVPGTDYGTQESISLLEVSTLGKAKTEPNKCVSQCAAFENPKGLIHGCSKDNRNDTEGFKYPLGHEVNHSRETSIEMEESELDAQYLQNTFKVSKRQSFAPFSNPGNAEEECATFSAHSGSLKKQSPKVTFECEQKEENQGKNESNIKPVQTVNITAGFPVVGQKDKPVDNAKCSIKGGSRFCLSSQFRGNETGLITPNKHGLLQNPYRIPPLFPIKSFVKTKCKKNLLEENFEEHSMSPEREMGNENIPSTVSTISRNNIRENVFKEASSSNINEVGSSTNEVGSSINEIGSS
notes: Produced in bacteria; also called fragment 4; not shown: glutathione S-transferase (GST) fusion tag
B3: GST-BRCA1 fragment F2 (BRCA1 residues 260-553) (other)
chain: KYQGSSVSNLHVEPCGTNTHASSLQHENSSLLLTKDRMNVEKAEFCNKSKQPGLARSQHNRWAGSKETCNDRRTPSTEKKVDLNADPLCERKEWNKQKLPCSENPRDTEDVPWITLNSSIQKVNEWFSRSDELLGSDDSHDGESESNAKVADVLDVLNEVDEYSGSSEKIDLLASDPHEALICKSERVHSKSVESNIEDKIFGKTYRKKASLPNLSHVTENLIIGAFVTEPQIIQERPLTNKLKRKRRPTSGLHPEDFIKKADLAVQKTPEMINQGTNQTEQNGQVMNITNSGH
notes: Produced in bacteria; also called fragment 2; not shown: glutathione S-transferase (GST) fusion tag
B4: BRE (other)
chain: MSPEVALNRISPMLSPFISSVVRNGKVGLDATNCLRITDLKSGCTSLTPGPNCDRFKLHIPYAGETLKWDIIFNAQYPELPPDFIFGEDAEFLPDPSALQNLASWNPSNPECLLLVVKELVQQYHQFQCSRLRESSRLMFEYQTLLEEPQYGENMEIYAGKKNNWTGEFSARFLLKLPVDFSNIPTYLLKDVNEDPGEDVALLSVSFEDTEATQVYPKLYLSPRIEHALGGSSALHIPAFPGGGCLIDYVPQVCHLLTNKVQYVIQGYHKRREYIAAFLSHFGTGVVEYDAEGFTKLTLLLMWKDFCFLVHIDLPLFFPRDQPTLTFQSVYHFTNSGQLYSQAQKNYPYSPRWDGNEMAKRAKGCQGSRDACSPWEQVLAFAVAKTGCKLLQPQRNWPSSRGPPWRASEGERTAQ
notes: also called BRCC45; BRCC45/BRE
B5: GST-BRCA1 fragment F3 (BRCA1 residues 502-802) (other)
chain: LKRKRRPTSGLHPEDFIKKADLAVQKTPEMINQGTNQTEQNGQVMNITNSGHENKTKGDSIQNEKNPNPIESLEKESAFKTKAEPISSSISNMELELNIHNSKAPKKNRLRRKSSTRHIHALELVVSRNLSPPNCTELQIDSCSSSEEIKKKKYNQMPVRHSRNLQLMEGKEPATGAKKSNKPNEQTSKRHDSDTFPELKLTNAPGSFTKCSNTSELKEFVNPSLPREEKEEKLETVKVSNNAEDPKDLMLSGERVLQTERSVESSSISLVPGTDYGTQESISLLEVSTLGKAKTEPNKCV
notes: Produced in bacteria; also called fragment 3; not shown: glutathione S-transferase (GST) fusion tag
B6: GST-BRCA1 fragment F1 (BRCA1 residues 1-324) (other)
chain: MDLSALRVEEVQNVINAMQKILECPICLELIKEPVSTKCDHIFCKFCMLKLLNQKKGPSQCPLCKNDITKRSLQESTRFSQLVEELLKIICAFQLDTGLEYANSYNFAKKENNSPEHLKDEVSIIQSMGYRNRAKRLLQSEPENPSLQETSLSVQLSNLGTVRTLRTKQRIQPQKTSVYIELGSDSSEDTVNKATYCSVGDQELLQITPQGTRDEISLDSAKKAACEFSETDVTNTEHHQPSNNDLNTTEKRAAERHPEKYQGSSVSNLHVEPCGTNTHASSLQHENSSLLLTKDRMNVEKAEFCNKSKQPGLARSQHNRWAGS
notes: Produced in bacteria; also called fragment 1; not shown: glutathione S-transferase (GST) fusion tag

Columns and labels:
[1] = target: T1, Jab1/CSN5 subunit of signalosome, recombinant (UniProt Q92905 1-334, limits assumed); experiment: protein-protein interaction assay with GST-BRCA1 fragments
T1 construct: Produced in recombinant form as a control JAMM domain protein; the construct is not described
Description: (§1) Recombinant BRCA1 and BARD1 was purified as described (Chen, et al. (2002) J. Biol. Chem. 277:22085-22092). […] Gluthatione-sepharose beads (Pharmacia, Peapack, N.J.), previously equilibrated in binding buffer, were added to the samples and inverted for an additionnal 2 hours at 4° C. Beads were collected by centrifugation at 2000×g, 30 seconds, washed several times in binding buffer containing 500 mM KCl and 0.1% NP40 and resuspended in 2× SDS loading buffer. Proteins were resolved by SDS-PAGE and western blot analysis was performed using anti-FLAG® antibodies (SIGMA, St. Louis, Mo.).

[2] = target: T2, (His)6-FLAG®-BRCC36 protein (Homo sapiens, UniProt P46736 1-316); experiment: GST pull-down: 5 µg (His)6-FLAG-BRCC36 with GST-BRCA1 fragment, anti-FLAG western blot
T2 construct: Produced in bacteria and purified; also called recombinant BRCC36; C6.1A; not shown: (His)6 and FLAG tags
Description: as §1

truncated BRCA1 (1-509) = target: T3, truncated BRCA1 (1-509) (Homo sapiens (Human), UniProt P38398 1-509); experiment: affinity purification of the truncated BRCA1 complex from a stable 293-derived cell line (co-purification; may be indirect)
T3 construct: Stably expressed in a 293-derived cell line; keeps the nuclear localization signal and the Ring domain; also called BRCA1 truncation

T1 sequence (Q92905 whole entry, the tested form may be a part): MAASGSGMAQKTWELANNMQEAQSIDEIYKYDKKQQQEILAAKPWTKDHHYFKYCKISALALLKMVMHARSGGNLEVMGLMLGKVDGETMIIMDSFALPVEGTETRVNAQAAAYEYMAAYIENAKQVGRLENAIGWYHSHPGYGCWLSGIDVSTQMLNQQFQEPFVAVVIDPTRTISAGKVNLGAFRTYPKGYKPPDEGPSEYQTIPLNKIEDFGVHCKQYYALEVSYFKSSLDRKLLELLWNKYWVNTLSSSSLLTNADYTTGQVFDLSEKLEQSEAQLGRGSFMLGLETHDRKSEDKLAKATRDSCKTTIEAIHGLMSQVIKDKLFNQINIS
T2 sequence (P46736 whole entry, the tested form may be a part): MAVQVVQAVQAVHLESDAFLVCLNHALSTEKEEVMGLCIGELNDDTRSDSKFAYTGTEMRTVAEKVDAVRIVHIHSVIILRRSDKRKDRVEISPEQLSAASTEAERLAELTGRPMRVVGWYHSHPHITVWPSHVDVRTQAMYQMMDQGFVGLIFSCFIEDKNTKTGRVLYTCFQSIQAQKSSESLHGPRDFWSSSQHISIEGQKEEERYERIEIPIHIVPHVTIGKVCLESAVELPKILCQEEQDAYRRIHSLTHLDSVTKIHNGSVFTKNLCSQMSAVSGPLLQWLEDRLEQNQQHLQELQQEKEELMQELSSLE

Binder	binding result [1]	binding result [2]	binding result (truncated BRCA1 (1-509))
B1	no binding	no binding	–
B2	no binding	–	–
B3	no binding	no binding	–
B4	–	–	no binding
B5	no binding	–	–
B6	no binding	–	–
